Assay results from patent publication US20160152728A1 (AFFEMED, published 2016).

Legend:
[1] = target: T1, EGFRvIII-Fc fusion antigen (human, UniProt P00533 25-645); experiment: SPR Biacore T200, EGFRvIII-Fc captured via anti-hu Fc, scFv analyte, 1:1 model;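 also: Multi-cycle kinetics on a CM5 chip in HBS-P+ running buffer, 180 s scFv association then 540 s dissociation, with blank flow cell signals subtracted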
Description: Anti-hu Fc IgG CM5-chip was prepared by covalent amine coupling by using the Amine-Coupling-Kit (GE), according to the instructions of the manufacturer. The IgG was diluted in the provided immobilization buffer (10 mM sodium acetate, pH 5.0) to a concentration of 25 μg/ml. For the coupling procedure, the predefined method “Amine” of the Biacore T200 control software was applied. A target level between 5000-10000 RU for all 4 flow cells was reached. The surface of the chip was activated with EDC/NHS before injecting the recombinant protein solutions. Free binding sites on the surface were blocked with ethanolamine. 1×HBS-P+ was selected as a running buffer for the entire coupling procedure.
Flowcell 1 and 3 were blanks. 1×HBS-P+ was used as running buffer for the entire procedure. The scFv antibodies were injected at a flow rate of 30 μL/min for 180 sec over all four flowcells. Signals measured in the flowcell 1 without captured antigen were subtracted from signals in the flowcell 2 to correct the binding curves for background binding. Signals measured in the flowcell 3 without captured antigen were subtracted from signals in the flowcell 4 to correct the binding curves for background binding. After 540 sec dissociation time the chip was regenerated as described below.
The Kinetics of scFv antibodies were determined in MCK (Multi Cycle Kinetic) measurements. For estimation of apparent binding affinities the binding curves were evaluated using the “Kinetic” method included in the Biacore evaluation software. By this method the binding curves are globally fitted by the software using the “Langmuir 1:1 interaction model”.

[2] = target: T2, EGFRvIII expressed on cells (CHO^EGFRvIII, F98^EGFRvIII) (UniProt P00533 25-1210); experiment: flow cytometry on F98^EGFRvIII cells; scFv detected with anti-His followed by FITC-conj. goat anti-mouse IgG, mean fluorescence intensity
T2 construct: whole, on cells; the vIII deletion must be applied; also called deletion mutant EGFRvIII
Description: (§1) After a second washing cycle, the cells were incubated with 0.1 mL of 15 μg/mL FITC-conjugated goat anti-mouse IgG antibodies under the same conditions as before. As a control, cells were incubated with the anti-His IgG 13/45/31 followed by the FITC-conjugated goat anti-mouse IgG antibodies without scFvs. The cells were then washed again and resuspended in 0.2 mL of FACS buffer containing 2 μg/mL propidium iodide in order to exclude dead cells. The fluorescence of 1×10⁴ living cells was measured using a Beckman-Coulter FC500 MPL flow cytometer using the MXP software (Beckman-Coulter, Krefeld, Germany) or a Millipore Guava EasyCyte flow cytometer using the Incyte software (Merck Millipore, Schwalbach, Germany). Mean fluorescence intensities of the cell samples were calculated using CXP software (Beckman-Coulter, Krefeld, Germany) or Incyte software (Merck Millipore, Schwalbach, Germany).
(§2) In case of analysis with Beckman-Coulter FC500 MPL flow cytometer 0.5×10⁶ cells/staining and in case of Millipore Guava EasyCyte flow cytometer only 0.25×10⁶ cells/staining were used.

[3] = target: T3, wild type EGFR expressed on cells (CHO^EGFR, F98^EGFR) (human, UniProt P00533 25-1210); experiment: flow cytometry on F98^EGFR cells; scFv detected with anti-His followed by FITC-conj. goat anti-mouse IgG
T3 construct: whole, on cells; also called native EGFR; EGFRwt
Description: as §1, §2

[4] = target: T1, EGFRvIII-Fc fusion antigen; experiment: ELISA on coated EGFRvIII-Fc; TandAb detected with Protein L-HRP, Abs(450nm) [EGFRvIII binding]
[5] = target: T2, EGFRvIII expressed on cells …; experiment: cell-based or functional assay
[6] = target: CD3γε recombinant antigen (UniProt P09693); experiment: ELISA on coated CD3γε antigen; TandAb detected with Protein L-HRP, Abs(450nm) [CD3γε binding]
CD3γε recombinant antigen, sequence (P09693 23-116, chain 1 of 2): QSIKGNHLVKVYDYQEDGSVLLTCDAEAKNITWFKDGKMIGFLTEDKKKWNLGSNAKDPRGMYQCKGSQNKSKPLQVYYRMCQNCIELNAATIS
CD3γε recombinant antigen, sequence (P07766 23-126, chain 2 of 2, further chain): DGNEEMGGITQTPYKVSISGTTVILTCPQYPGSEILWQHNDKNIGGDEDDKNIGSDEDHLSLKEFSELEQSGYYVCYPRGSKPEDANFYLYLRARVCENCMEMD

[7] = target: EGFRvIII-Fc fusion antigen (human) (UniProt P00533); experiment: ELISA on coated EGFRvIII-Fc; TandAb detected with Protein L-HRP, Abs(450nm) [EGFRvIII binding]

B1: scFv 476 (scFv, V domains shown)
VH: EVQLVQSGAEVKKPGESLKISCKGSGYSFTSYWIGWVRQMPGKGLEWMGIIYPGDSDTRYSPSFQGQVTISADKSISTAYLQWSSLKASDTAMYYCARLGSSWTNDAFDIWGQGTLVTVSS
VL: SYELTQPPSVSVSPGQTARITCSGDNIPHQYAYWYQQKPGQAPVLVIYKDTERPAGIPERFSGSSSGTTVTLTISGVQAEDEADYYCQSADPTGAYLVFGGGTKLTVL
notes: One-chain scFv, His-tagged
[1]
  KD improvement factor vs parental scFv Li3G30: 5 fold
  Kd: 1.56 nM
  kOFF improvement factor vs parental scFv Li3G30: 1.1 fold
  kON improvement factor vs parental scFv Li3G30: 4.3 fold
  koff: 0.0011 s⁻¹
  kon: 690000 M⁻¹ s⁻¹
[2]
  EC50 (read off the curve): ~2 nM
[3]
  binding result: no binding (tested: about 3300 nM)

B2: scFv 478 (scFv, V domains shown)
VH: EVQLVQSGAEVKKPGESLKISCKGSGYSFNSYWIGWVRQMPGKGLEWMGIIYPGDEDTRYSPSFQGQVTISADKSISTAYLQWSSLKASDTAMYYCARLGSSWTNDAFDIWGQGTLVTVSS
VL: SYELTQPPSVSVSPGQTARITCSGDALPKQYAYWYQQKPGQAPVLVIYKDTERPSGIPERFSGSSSGTTVTLTISGVQAEDEADYYCQSVDPSGTYVVFGGGTKLTVL
notes: One-chain scFv, His-tagged
[1]
  KD improvement factor vs parental scFv Li3G30: 49.6 fold
  Kd: 0.16 nM
  kOFF improvement factor vs parental scFv Li3G30: 5.2 fold
  kON improvement factor vs parental scFv Li3G30: 8.8 fold
  koff: 0.00023 s⁻¹
  kon: 1.4e+06 M⁻¹ s⁻¹
[2]
  EC50 (read off the curve): ~2 nM
[3]
  binding result: no binding

B3: scFv 477 (scFv, V domains shown)
VH: EVQLVQSGAEVKKPGESLKISCKGSGYSFSSYWIGWVRQMPGKGLEWMGIIYPGDSDTRYSPSFQGQVTISADKSISTAYLQWSSLKASDTAMYYCARLGSSWTNDAFDIWGQGTLVTVSS
VL: SYELTQPPSVSVSPGQTARITCSGDYLPKQYAYWYQQKPGQAPVLVIYKDTERPSGIPERFSGSSSGTTVTLTISGVQAEDEADYYCQSADASGTYYVFGGGTKLTVL
notes: One-chain scFv, His-tagged
[1]
  KD improvement factor vs parental scFv Li3G30: 6 fold
  Kd: 1.3 nM
  kOFF improvement factor vs parental scFv Li3G30: 0.3 fold
  kON improvement factor vs parental scFv Li3G30: 18.8 fold
  koff: 0.0038 s⁻¹
  kon: 3e+06 M⁻¹ s⁻¹
[2]
  EC50 (read off the curve): ~2 nM
[3]
  binding result: no binding (tested: about 3300 nM)

B4: TandAb EGFRvIII(ABC478)/CD3(v64) (bispecific antibody)
tandem diabody polypeptide (homodimer): DIQMTQSPSSLSASVGDRVTITCRSSTGAVTTSNYANWVQQKPGKAPKALIGGTNKRAPGVPSRFSGSLIGDKATLTISSLQPEDFATYYCALWYSNLWVFGQGTKVEIKEVQLVQSGAEVKKPGESLKISCKGSGYSFNSYWIGWVRQMPGKGLEWMGIIYPGDEDTRYSPSFQGQVTISADKSISTAYLQWSSLKASDTAMYYCARLGSSWTNDAFDIWGQGTLVTVSSSYELTQPPSVSVSPGQTARITCSGDALPKQYAYWYQQKPGQAPVLVIYKDTERPSGIPERFSGSSSGTTVTLTISGVQAEDEADYYCQSVDPSGTYVVFGGGTKLTVLEVQLVESGGGLVQPGGSLRLSCAASGFTFSTYAMNWVRQAPGKGLEWVGRIRSKYNNYATYYADSVKDRFTISRDDSKNSLYLQMNSLKTEDTAVYYCARHGNFGNSYVSYFAYWGQGTLVTVSS
notes: also called domain order (i) VL^CD3-VH^EGFRvIII-VL^EGFRvIII-VH^CD3
[4]
  EC50 (read off the curve): ~1 nM

B5: TandAb EGFRvIII(ABC479)/CD3(v64) (bispecific antibody)
tandem diabody polypeptide (homodimer): DIQMTQSPSSLSASVGDRVTITCRSSTGAVTTSNYANWVQQKPGKAPKALIGGTNKRAPGVPSRFSGSLIGDKATLTISSLQPEDFATYYCALWYSNLWVFGQGTKVEIKQSGAEVKKPGEVQLVESLKISCKGSGYDFSSYWIGWVRQMPGKGLEWMGIIYPGDSDTIYSPSFQGQVTISADKSISTAYLQWSSLKASDTAMYYCARLGSSWTNDAFDIWGQGTLVTVSSSYELTQPPSVSVSPGQTARITCSGAALPEQYAYWYQQKPGQAPVLVIYKDSERPSGIPERFSGSSSGTTVTLTISGVQAEDEADYYCQSVDSSGTFYVFGGGTKLTVLEVQLVESGGGLVQPGGSLRLSCAASGFTFSTYAMNWVRQAPGKGLEWVGRIRSKYNNYATYYADSVKDRFTISRDDSKNSLYLQMNSLKTEDTAVYYCARHGNFGNSYVSYFAYWGQGTLVTVSS
notes: as for B4
[4]
  EC50 (read off the curve): ~4 nM

B6: EGFRvIII/CD3 TandAb with EGFRvIII binding domain ABC469, domain order (i) VL^CD3(v64)-VH^EGFRvIII-VL^EGFRvIII-VH^CD3(v64) (bispecific antibody, part only; not given: CD3 v64 domain and linkers, not shown: small tags and cut ends)
chain, part: EVQLVQSGAEVKKPGESLKISCKGSGYSFNSYWIGWVRQMPGKGLEWMGIIYPGDSDTRYSPSFQGQVTISADKSISTAYLQWSSLKASDTAMYYCARLGSSWTNDAFDIWGQGTLVTVSSLTQPPSYESVSVSPGQTARITCSGDTLPKQYAYWYQQKPGQAPVLVIYKDSERPSGIPERFSGSSSGTTVTLTISGVQAEDEADYYCQSVDVSGTYVVFGGGTKLTVL
[5]
  Cytotoxic potency EC50: 11 nM
  cytotoxicity improvement factor relative to parental TandAb: 2.5 fold
[4]
  EC50 (read off the curve): 1 nM

B7: EGFRvIII/CD3 TandAb with EGFRvIII binding domain ABC469, domain order (iv) VH^EGFRvIII-VL^CD3-VH^CD3-VL^EGFRvIII (bispecific antibody, part only; not given: CD3 domain and linkers, not shown: small tags and cut ends)
chain, part: EVQLVQSGAEVKKPGESLKISCKGSGYSFNSYWIGWVRQMPGKGLEWMGIIYPGDSDTRYSPSFQGQVTISADKSISTAYLQWSSLKASDTAMYYCARLGSSWTNDAFDIWGQGTLVTVSSLTQPPSYESVSVSPGQTARITCSGDTLPKQYAYWYQQKPGQAPVLVIYKDSERPSGIPERFSGSSSGTTVTLTISGVQAEDEADYYCQSVDVSGTYVVFGGGTKLTVL
[5]
  Cytotoxic potency EC50: 6.5 nM
  cytotoxicity improvement factor relative to parental TandAb: 33.3 fold
[4]
  EC50 (read off the curve): 0.6 nM
[6]
  EC50 (read off the curve): 7 nM

B8: EGFRvIII/CD3 TandAb with EGFRvIII binding domain ABC471, domain order (i) VL^CD3(v64)-VH^EGFRvIII-VL^EGFRvIII-VH^CD3(v64) (bispecific antibody, part only; not given: CD3 v64 domain and linkers, not shown: small tags and cut ends)
chain, part: EVQLVQSGAEVKKPGESLKISCKGSGYSFNSYWIGWVRQMPGKGLEWMGIIYPGDSANRYSPSFQGQVTISADKSISTAYLQWSSLKASDTAMYYCARLGSSWTNDAFDIWGQGTLVTVSSSYELTQPPSVSVSPGQTARITCSGDYLPKQYAYWYQQKPGQAPVLVIYKDTERPSGIPERFSGSSSGTTVTLTISGVQAEDEADYYCQSVDSSHPSVVFGGGTKLTVL
[5]
  Cytotoxic potency EC50: 1.5 nM
  cytotoxicity improvement factor relative to parental TandAb: 18.2 fold
[7]
  EC50 (read off the curve): 0.8 nM

B9: EGFRvIII/CD3 TandAb with EGFRvIII binding domain ABC470, domain order (i) VL^CD3(v64)-VH^EGFRvIII-VL^EGFRvIII-VH^CD3(v64) (bispecific antibody, part only; not given: CD3 v64 domain and linkers, not shown: small tags and cut ends)
chain, part: EVQLVQSGAEVKKPGESLKISCKGSGYSFNSYWIGWVRQMPGKGLEWMGIIYPGDSDTRYSPSFQGQVTISADKSISTAYLQWSSLKASDTAMYYCARLGSSWTNDAFDIWGQGTLVTVSSSYELTQPPSVSVSPGQTARITCSGDALDKQYAYWYQQKPGQAPVLVIYKDSERPSGIPERFSGSSSGTTVTLTISGVQAEDEADYYCQSVDSSETYVVFGGGTKLTVL
[5]
  Cytotoxic potency EC50: 4 nM
  cytotoxicity improvement factor relative to parental TandAb: 6.8 fold
[7]
  EC50 (read off the curve): 0.7 nM

B10: EGFRvIII/CD3 TandAb with EGFRvIII binding domain ABC472, domain order (i) VL^CD3(v64)-VH^EGFRvIII-VL^EGFRvIII-VH^CD3(v64) (bispecific antibody, part only; not given: CD3 v64 domain and linkers, not shown: small tags and cut ends)
chain, part: EVQLVQSGAEVKKPGESLKISCKGSGYSFGYYWIGWVRQMPGKGLEWMGIIYPGDSHTRYSPSFQGQVTISADKSISTAYLQWSSLKASDTAMYYCARLGSSWTNDAFDIWGQGTLVTVSSSYELTQPPSVSVSPGQTARITCSGDALPKQYAYWYQQKPGQAPVLVIYKDTERPSGIPERFSGSSSGTTVTLTISGVQAEDEADYYCQSVDSSGTQVVFGGGTKLTVL
[5]
  Cytotoxic potency EC50: 4.2 nM
  cytotoxicity improvement factor relative to parental TandAb: 6.5 fold
[7]
  EC50 (read off the curve): 0.8 nM

B11: EGFRvIII/CD3 TandAb with EGFRvIII binding domain ABC471, domain order (iv) VH^EGFRvIII-VL^CD3-VH^CD3-VL^EGFRvIII (bispecific antibody, part only; not given: CD3 domain and linkers, not shown: small tags and cut ends)
chain, part: EVQLVQSGAEVKKPGESLKISCKGSGYSFNSYWIGWVRQMPGKGLEWMGIIYPGDSANRYSPSFQGQVTISADKSISTAYLQWSSLKASDTAMYYCARLGSSWTNDAFDIWGQGTLVTVSSSYELTQPPSVSVSPGQTARITCSGDYLPKQYAYWYQQKPGQAPVLVIYKDTERPSGIPERFSGSSSGTTVTLTISGVQAEDEADYYCQSVDSSHPSVVFGGGTKLTVL
[5]
  Cytotoxic potency EC50: 3.1 nM
  cytotoxicity improvement factor relative to parental TandAb: 69.8 fold
[4]
  EC50 (read off the curve): 0.6 nM

B12: EGFRvIII/CD3 TandAb with EGFRvIII binding domain ABC470, domain order (iv) VH^EGFRvIII-VL^CD3-VH^CD3-VL^EGFRvIII (bispecific antibody, part only; not given: CD3 domain and linkers, not shown: small tags and cut ends)
chain, part: EVQLVQSGAEVKKPGESLKISCKGSGYSFNSYWIGWVRQMPGKGLEWMGIIYPGDSDTRYSPSFQGQVTISADKSISTAYLQWSSLKASDTAMYYCARLGSSWTNDAFDIWGQGTLVTVSSSYELTQPPSVSVSPGQTARITCSGDALDKQYAYWYQQKPGQAPVLVIYKDSERPSGIPERFSGSSSGTTVTLTISGVQAEDEADYYCQSVDSSETYVVFGGGTKLTVL
[5]
  Cytotoxic potency EC50: 3.8 nM
  cytotoxicity improvement factor relative to parental TandAb: 56.9 fold
[4]
  EC50 (read off the curve): 0.9 nM

B13: TandAb EGFRvIII(ABC479)/CD3, domain order (iv) VH^EGFRvIII-VL^CD3-VH^CD3-VL^EGFRvIII (bispecific antibody, part only; not given: CD3 domain and linkers, part only)
tandem diabody polypeptide (homodimer), part: QSGAEVKKPGEVQLVESLKISCKGSGYDFSSYWIGWVRQMPGKGLEWMGIIYPGDSDTIYSPSFQGQVTISADKSISTAYLQWSSLKASDTAMYYCARLGSSWTNDAFDIWGQGTLVTVSSSYELTQPPSVSVSPGQTARITCSGAALPEQYAYWYQQKPGQAPVLVIYKDSERPSGIPERFSGSSSGTTVTLTISGVQAEDEADYYCQSVDSSGTFYVFGGGTKLTVL
[4]
  EC50 (read off the curve): 0.9 nM
